{"source": "paper PMC11088064", "about": "(BMC Immunology, 2024)", "binders": {"B1": {"name": "GNUV201 (antibody, V domains shown)", "VH": "QVQLVQSGAEVKKPGASVKVSCKASGYTFTGYWMHWVRQAPGQGLEWIGMIHPNSDTTTYNEKFKNRVTMTRDTSISTAYMELSRLRSDDTAVYYCAGTDQAAWFAFWGQGTTVTVSS", "VL": "DIVMTQTPLSLSVTPGQPASISCRSSQNIVHSQGDTYLEWYLQKPGQSPQLLIYKVSKRFSGVPDRFSGSGSGTDFTLKISRVEAEDVGVYYCFQGSHVPWTFGGGTKVEIK", "notes": "humanized VH: CDRs of mouse clone 1G1 grafted into human IgG framework, with select point mutations; human IgG4 heavy chain constant region, hinge-stabilised S228P variant; IgG4 (S228P); the data statement says that datasets are available on request; also called humanized GNUV201; anti-PD-1; copies: 2 + 2"}}, "key": {"hPD-1 on CHO cells [1]": {"biological_target": "T1, hPD-1 on CHO cells (human, UniProt Q15116)", "T1 sequence (Q15116 25-288)": "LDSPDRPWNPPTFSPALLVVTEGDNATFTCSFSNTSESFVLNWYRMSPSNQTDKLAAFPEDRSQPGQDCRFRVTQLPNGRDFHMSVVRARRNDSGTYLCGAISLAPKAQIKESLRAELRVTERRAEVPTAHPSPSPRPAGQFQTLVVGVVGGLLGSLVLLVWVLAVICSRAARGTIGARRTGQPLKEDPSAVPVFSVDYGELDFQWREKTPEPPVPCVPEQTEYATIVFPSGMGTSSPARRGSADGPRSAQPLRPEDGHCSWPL", "assay": "cell-based or functional assay"}, "[2]": {"biological_target": "T2, hPD-1 P130A on HEK293T cells (Homo sapiens, UniProt Q15116, P130A)", "T2 construct": "programmed cell death 1 (PD-1), human, alanine mutant of the shotgun mutagenesis library; source: HEK293 T cells, transiently transfected, on cells", "T2 sequence (Q15116 25-288 P130A)": "as the sequence (Q15116 25-288) above, with P106A counted along it", "assay": "flow cytometry on cells; shotgun mutagenesis alanine scan (Integral Molecular): hPD-1 wild type or mutants transiently expressed in HEK293 T cells, incubated with antibody, Alexa Fluor 488 secondary antibody; non-blocking control anti-PD-1 as reference", "details": "one partner purified"}, "[3]": {"biological_target": "T3, hPD-1 I126A on HEK293T cells (Homo sapiens, UniProt Q15116, I126A)", "T3 construct": "programmed cell death 1 (PD-1), human, alanine mutant of the shotgun mutagenesis library; source: HEK293 T cells, transiently transfected, on cells", "T3 sequence (Q15116 25-288 I126A)": "as the sequence (Q15116 25-288) above, with I102A counted along it", "assay": "flow cytometry on cells; shotgun mutagenesis alanine scan (Integral Molecular): hPD-1 wild type or mutants transiently expressed in HEK293 T cells, incubated with antibody, Alexa Fluor 488 secondary antibody; non-blocking control anti-PD-1 as reference", "details": "one partner purified"}, "[4]": {"biological_target": "T4, hPD-1 L128A on HEK293T cells (Homo sapiens, UniProt Q15116, L128A)", "T4 construct": "programmed cell death 1 (PD-1), human, alanine mutant of the shotgun mutagenesis library; source: HEK293 T cells, transiently transfected, on cells", "T4 sequence (Q15116 25-288 L128A)": "as the sequence (Q15116 25-288) above, with L104A counted along it", "assay": "flow cytometry on cells; shotgun mutagenesis alanine scan (Integral Molecular): hPD-1 wild type or mutants transiently expressed in HEK293 T cells, incubated with antibody, Alexa Fluor 488 secondary antibody; non-blocking control anti-PD-1 as reference", "details": "one partner purified"}, "hPD-1 on CHO cells [5]": {"biological_target": "T1, hPD-1 on CHO cells", "assay": "flow cytometry on cells; competition: PD-1-expressing CHO-S cells with serial dilutions of anti-PD-1 at 4 °C for 15 min, then human Fc (IgG1)-labeled PD-L1 at 4 °C for 1 h in PBS/2% BSA; bound PD-L1 detected with PE anti-human IgG1/3", "details": "one partner purified"}, "mPD-1 on CHO cells": {"biological_target": "T5, mPD-1 on CHO cells (mouse, UniProt Q02242)", "T5 construct": "also called mPD-1-expressing CHO cells; cellular mPD-1; source: CHO cells, stably transfected (pCMV3 vector), on cells", "T5 sequence (Q02242 25-288)": "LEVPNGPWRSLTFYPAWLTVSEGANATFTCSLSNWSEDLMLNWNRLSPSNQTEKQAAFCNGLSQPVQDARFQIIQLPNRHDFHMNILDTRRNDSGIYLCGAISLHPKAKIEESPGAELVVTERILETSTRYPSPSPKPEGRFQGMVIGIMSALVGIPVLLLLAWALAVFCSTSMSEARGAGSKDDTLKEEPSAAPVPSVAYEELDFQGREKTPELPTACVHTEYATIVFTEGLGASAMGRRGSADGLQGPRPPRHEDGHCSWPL", "assay": "flow cytometry on cells; competition: PD-1-expressing CHO-S cells with serial dilutions of anti-PD-1 at 4 °C for 15 min, then human Fc (IgG1)-labeled PD-L1 at 4 °C for 1 h in PBS/2% BSA; bound PD-L1 detected with PE anti-human IgG1/3", "details": "one partner purified"}}}
{"binder": "B1", "values": [{"measurement": "reporter assay: luciferase (NFAT-RE) in Jurkat T cells expressing hPD-1 with human PD-L1 aAPC/CHO-K1 cells; IC50 of blocking hPD-1/hPD-L1", "setting": "hPD-1 on CHO cells [1]", "value": 6.3, "unit": "nM"}, {"measurement": "percent of WT PD-1 control binding", "setting": "[2]", "value": 19.5, "unit": "%"}, {"measurement": "percent of WT PD-1 control binding", "setting": "[3]", "value": 46.6, "unit": "%"}, {"measurement": "percent of WT PD-1 control binding", "setting": "[4]", "value": 38.5, "unit": "%"}, {"measurement": "IC50", "setting": "hPD-1 on CHO cells [5]", "value": 9.9, "unit": "nM"}, {"measurement": "IC50", "setting": "mPD-1 on CHO cells", "value": 6.7, "unit": "nM"}]}
